Assay results as given in patent US20250270529.

System: T1, Cas13f v3 (v2+D160A&D642A) (synthetic construct)
T1 sequence: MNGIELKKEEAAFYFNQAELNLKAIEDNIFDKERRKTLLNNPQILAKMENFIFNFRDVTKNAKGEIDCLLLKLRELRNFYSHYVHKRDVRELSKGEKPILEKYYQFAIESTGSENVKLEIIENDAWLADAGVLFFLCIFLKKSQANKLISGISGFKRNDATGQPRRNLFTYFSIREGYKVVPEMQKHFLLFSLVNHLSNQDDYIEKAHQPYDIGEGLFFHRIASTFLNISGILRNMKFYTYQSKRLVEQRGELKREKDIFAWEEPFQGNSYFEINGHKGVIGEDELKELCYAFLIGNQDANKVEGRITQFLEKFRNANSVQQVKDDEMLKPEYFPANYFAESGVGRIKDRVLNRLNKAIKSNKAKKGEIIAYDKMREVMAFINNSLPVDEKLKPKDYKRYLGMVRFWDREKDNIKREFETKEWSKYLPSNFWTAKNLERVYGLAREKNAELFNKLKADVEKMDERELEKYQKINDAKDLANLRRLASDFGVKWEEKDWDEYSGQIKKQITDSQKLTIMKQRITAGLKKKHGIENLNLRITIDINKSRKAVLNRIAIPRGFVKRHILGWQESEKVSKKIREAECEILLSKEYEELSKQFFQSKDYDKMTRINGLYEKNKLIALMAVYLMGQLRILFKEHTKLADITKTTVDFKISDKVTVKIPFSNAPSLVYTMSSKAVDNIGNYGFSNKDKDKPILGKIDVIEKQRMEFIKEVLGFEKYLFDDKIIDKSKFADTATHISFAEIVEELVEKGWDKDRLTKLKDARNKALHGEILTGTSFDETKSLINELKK
Experiment: cell_activity
Settings: HEK293T; non-targeting spacer control

“non-targeting gRNA (DR-spacer-DR) ; mCherry reporter mRNA” showed an activity (RFP MFI (normalization reference)) of 1.
